Paper PMC10823590

Target: ST2 receptor (isolated protein used in ELISA and in the fluorescence emission assay) (UniProt Q01638)
Assay: fluorescence emission before and after incubation with the receptor; IL-33 analogues at 50 ug/mL, fluorescence emission measured before and after incubation with ST2 at 200 ug/mL, n = 3

fold increase of fluorescence emission upon receptor binding: 4 fold
Substance: IL-33(6) (from UniProt O95760 1-270) (ligand)
